Results reported in patent publication US20220409535A1, “BIOLOGICAL AGENT-EXOSOME COMPOSITIONS AND USES THEREOF” (The University of North Carolina at Chapel Hill, priority 2016, published 2022).

Key:
hCMEC/D3 cells = assay: Flow cytometry of cell uptake of Mϕ exosomes and endocytosis markers; type: cell-based, human; conditions: for effect on uptake of Mϕ exosomes: CM-DiI labeled exosomes, 4 h; for effect on uptake of respective endocytosis marker: sucrose of transferrin, nystatin of CTB, EIPA of dextran (70 kDa)
Experimental: Flow Cytometry of Cell Uptake. hCMEC/D3 cells were grown in 24-well plates at […] for 4-5 days to reach confluence. Exosomes were labeled by adding CM-DiI dyes (2 μg/ml, Life Technologies) to the medium before the first […] pelleting step. In the uptake mechanism studies, the cells were pretreated with endocytosis inhibitors, carbohydrates or EGTA for 0.5 h, and then co-treated with CM-DiI labeled exosomes (0.6×10^10 exosomes/ml) for 4 h. The inhibition of endocytosis markers uptake was studied similarly. The endocytosis markers used were Alexa Fluor 488-Transferrin (10 μg/ml, Life technologies) for clathrin mediated endocytosis, Alexa Fluor 488-CTB (5 μg/ml, Life technologies) for caveolae mediated endocytosis, and FITC-Dextran (70 kDa, Sigma) (10 mg/ml) for macropinocytosis. The antibody block assays were done by co-incubating exosomes with antibodies or isotope controls at 100 μg/ml for 4 h. The cells were washed trice by PBS, detached by 0.25% trypsin/EDTA, collected by centrifugation at 100 g for 10 min, fixed with 4% paraformaldehyde for 10 min, and then resuspended in 0.35 ml PBS. Viable singlets were gated based on forward scatter and side scatter. 5,000-10,000 viable singlets were recorded for each sample on Becton Dickinson LSRII (BD Biosciences) using 488 nm and 532 nm lasers. Unless otherwise noted in figure legend, data are not normalized and reported as mean fluorescence±SD of 3 replicate wells.

ICAM-1 = ICAM-1 expression in hCMEC/D3 cells by western blot; type: cell-based, human
Experimental: Protein expression was determined by western blot using β-actin as loading control.

[1] = PK and distribution in healthy CD-1 mice; type: in vivo, mouse; conditions: jugular vein
Experimental: Iodine Labeling. Exosomes and proteins were labeled with iodine by chloramine-T method (Yi et al., J. Controlled Release 191:34 (2014)). Briefly, exosomes or proteins were mixed with 1 mCi of Na^125I or Na^131I (Perkin Elmer) and 10 μg of chloramine-T in phosphate buffer (0.25 M, pH 7.5) for 60 s. Labeled exosomes and proteins were purified by Illustra Nap-5 columns (Life technologies) and collected in tubes pretreated with 1% BSA in PBS to prevent nonspecific adsorption. The iodine association (iodine in labeled sample/total iodine) was determined by trichloroacetic acid precipitation method (Yi et al., J. Controlled Release 191:34 (2014)). Briefly, 1 μl of purified samples was mixed with 0.5 ml of 1% BSA in PBS and 0.5 ml of 30% TCA, and then centrifuged at 5400 g for 10 min. The resulting pellet and supernatant were counted on r-counter (PerkinElmer). The iodine association was calculated as the percentage of pellet radioactivity to total radioactivity.
(§1) Animal Procedure. Mice were anesthetized with 40% urethane (4 g/kg) by intraperitoneal injection. Iodine labeled substances (4×10^5 cpm) were injected to the right jugular vein. At each time point, blood was collected from the left carotid artery, allowed to clot and then centrifuged at 5400 g for 10 min to collect serum. The whole brain and peripheral organs were removed and weighed immediately after blood sampling. The radioactivity of serum and tissues were counted and normalized to injected dose (ID) by volume (ml) or weight (g) (% ID/ml or % ID/g). An injection check representing ID was also counted (n=3).
(§2) PK data analysis. The noncompartmental PK parameters Vss (ml), Cl (ml/min), MRTlast and MRTinf (h) were estimated using Phoenix® WinNonlin® 6.3 (Pharsight). The Ki (slope) and Vi (y-intercept) were calculated from the linear portion of multiple-time regression analysis (Price et al., J. Pharmacol. Exper. Ther. 333:253 (2010); Patlak et al., J. Cerebral Blood Flow Metab. 3:1 (1983); Patlak et al., J. Cerebral Blood Flow Metab. 5:584 (1985)). Brain/serum ratio (Am/Cpt, ml/g) of co-injected BSA was used to correct for the vascular space or leakage (Banks et al, Brain Behav. Immun. 2010, 24:102 (2010)), and subtracted from that of tested substance to get the delta brain/serum ratio. The delta brain/serum ratio was plotted against exposure time following equation

[2] = Shinoda et al.; cited from earlier work
[3] = Size of catalase exosomal formulations by DLS and NTA; type: physicochemical; conditions: DLS
Experimental: Characterization of different exoCAT formulations by (Dynamic Light Scattering) DLS, (Atomic Force Microscopy) AFM, Nanoparticle Tracking Analysis (NTA), and Hyperspectral microscopy: The effective hydrodynamic diameter of empty exosomes, or exosomes loaded with catalase was measured by DLS using the ZetaPlus' Zeta Potential Analyzer (Brookhaven Instruments, […]., USA) equipped with a 35 mW solid state laser (658 nm laser) as described in (Bronich et al., J. Amer. Chem. Soc. 122:8339 (2000); Vinogradov et al., Colloids Surfaces B-Biointerfaces 16:291 (1999)). The size, distribution, and number of particles for various exosomal formulations were also examined by NTA. For this purpose, exoCAT formulations were prepared at concentration 0.01 mg/mL, and evaluated using NanoSight 500, Version 2.2 (Wiltshire, United Kingdom). The morphology of exoCAT aggregates was investigated by AFM. Different exoCAT formulations were prepared in 50 mM phosphate buffer, pH 7.4 at total protein 10 μg/mL. A drop of the sample was placed on a glass slide, and dried under an argon flow. The AFM imaging was operated as described earlier (Zhao et al., Nanomedicine (Lond) 6:25 (2011)).

[4] = Preservation of catalase enzymatic activity and stability of exoCAT; type: physicochemical; conditions: sonication conditions
Experimental: Enzymatic activity of catalase loaded into exosomes: The loading efficiency for different exoCAT formulations was assessed by catalase enzymatic activity using hydrogen peroxide decomposition assay (Zhao et al., Nanomedicine (Lond) 6:25 (2011)). For this purpose, different exoCAT formulations were incubated with pronase (0.1-0.2 mg/mL) for 3 hours at 37° C. Following the incubation, the aliquots were subjected for catalytic activity assessment as described above. The same assay was used to examine the preservation of catalase enzymatic activity in exosomes against proteases degradation. Stability of catalase was expressed in the residual activity vs. initial activity of catalase.

PC12 cells = assay: Cell viability (MTT) of PC12 cells exposed to 6-OHDA; type: cell-based, rat
Experimental: Cell viability assay: The protection of PC12 cell by exoCAT prepared by sonication was assessed by MTT assay. For this purpose, PC12 cells (1×10^5 cells/mL) were seeded into a 96-well plate and allowed to attach overnight. Then, the cells were exposed to 200 μM 6-OHDA and different exoCAT formulations, or catalase alone, or empty exosomes for four hours. Following the incubation, the cells were washed 3 times with ice-cold PBS, and incubated with the corresponding exoCAT formulations, or catalase alone, or empty exosomes for another 24 hours. Following the treatment, 20 μL MTT (5 mg/mL) was added into each well. After 3 hours of incubation at 37° C., the medium containing MTT was removed; and 100 μL DMSO was added into each well to dissolve the purple MTT formazan. Absorbances were read at λ=570 nm by a microplate reader, and cell viability was expressed as a percentage of viable cells in the treated groups compared to the untreated control group.

[5] = calculated from the molecular mass of the enzyme; cited from earlier work
6-OHDA-intoxicated mice = assay: Immunohistochemical and stereological analyses in 6-OHDA PD mouse model; conditions: i.n.
Experimental: For the detection of microglia activation, tissue sections were incubated with primary monoclonal rat anti-mouse anti-CD11b antibodies (1:500 dilution), and secondary biotinylated goat anti-rat antibodies (Vector Laboratories, Burlingame, Calif., 1:200 dilution). […] In addition, levels of astrocytosis were assessed in the ventral midbrain region by fluorescent analysis of glial fibrillary acidic protein (GFAP) expression. For the GFAP staining, tissue sections were permeabilized with 0.01% Triton X-100 in TBS for 30 minutes and blocked for 1 hour with 10% normal goat serum (NGS, Vector Laboratories Inc., Burlingame, Calif.), then incubated with rabbit anti-GFAP primary polyclonal antibodies ab7260 (AbCam, Cambridge, Mass.) 1:100 dilution for 16 hours at 4° C. […] Immunoreactivity was evaluated by fluorescent analysis using confocal microscope Zeiss 510 Meta Confocal Laser Scanning Microscope (Jena, Germany), and ImageJ software (NIH, Bethesda, Mass., USA).

[6] = Brain delivery of BDNF and Mϕ exosomes complex; type: in vivo, mouse; conditions: brain-inflamed mice, 10 min
Experimental: as §1
as §2, with “The delta brain/serum ratio was plotted against exposure time following equation” left out
We further determined if Mϕ exosomes would ferry BDNF to the brain. […]

[7] = Patterson et al.; cited from earlier work

Molecule: O=C(O)CN(CCOCCOCCN(CC(=O)O)CC(=O)O)CC(=O)O [EGTA, ethylene glycol-bis(2-aminoethylether)-N, N, N′, N′-tetraacetic acid]
- effect on uptake of Mϕ exosomes (hCMEC/D3 cells): decreased

Molecule: CCN(c1nc(N)c(C(=O)N=C(N)N)nc1Cl)C(C)C [EIPA, 5-(N-Ethyl-N-isopropyl) amiloride]
- effect on uptake of Mϕ exosomes (hCMEC/D3 cells): significantly decreased the uptake of Mϕ exosomes
- effect on uptake of respective endocytosis marker (hCMEC/D3 cells): diminished uptake of a respective endocytosis marker

Molecule: N[C@H]1C(O)O[C@H](CO)[C@@H](O)[C@@H]1O (stereo partly drawn) [glucosamine]
- effect on uptake of Mϕ exosomes (hCMEC/D3 cells): inhibited the uptake at lower concentrations
- ICAM-1 expression (ICAM-1): did not inhibit the expression of ICAM-1

Molecule: C[C@@H]1[C@H](O)[C@@H](C)/C=C/C=C/CC/C=C/C=C/C=C/C=C/C(O[C@H]2O[C@H](C)[C@@H](O)[C@H](N)[C@@H]2O)CC2O[C@](O)(CC(O)C(O)CCC(O)CC(O)CC(O)CC(=O)O[C@H]1C)CC(O)C2C(=O)O (stereo partly drawn) [nystatin]
- effect on uptake of Mϕ exosomes (hCMEC/D3 cells): significantly decreased the uptake of Mϕ exosomes
- effect on uptake of respective endocytosis marker (hCMEC/D3 cells): diminished uptake of a respective endocytosis marker

Molecule: OC[C@H]1O[C@@](CO)(O[C@H]2O[C@H](CO)[C@@H](O)[C@H](O)[C@H]2O)[C@@H](O)[C@@H]1O [sucrose]
- effect on uptake of Mϕ exosomes (hCMEC/D3 cells): significantly decreased the uptake of Mϕ exosomes
- effect on uptake of respective endocytosis marker (hCMEC/D3 cells): diminished uptake of a respective endocytosis marker

Molecule: ^131I-BSA: 131I-labeled bovine serum albumin, co-injected vascular marker
- Cl [1]: 0.0039 mL/min
- MRTinf [1]: 6.10 h
- MRTlast [1]: 56.4 min
- Vss [1]: 1.44 mL
- Cl, previously published data [2]: 0.0035 mL/min
- Vss, previously published data [2]: 1.5 mL

B1: Catalase alone: Catalase from bovine liver (protein, UniProt P00432 2-527, looked up)
Catalase: ADNRDPASDQMKHWKEQRAAQKPDVLTTGGGNPVGDKLNSLTVGPRGPLLVQDVVFTDEMAHFDRERIPERVVHAKGAGAFGYFEVTHDITRYSKAKVFEHIGKRTPIAVRFSTVAGESGSADTVRDPRGFAVKFYTEDGNWDLVGNNTPIFFIRDALLFPSFIHSQKRNPQTHLKDPDMVWDFWSLRPESLHQVSFLFSDRGIPDGHRHMNGYGSHTFKLVNANGEAVYCKFHYKTDQGIKNLSVEDAARLAHEDPDYGLRDLFNAIATGNYPSWTLYIQVMTFSEAEIFPFNPFDLTKVWPHGDYPLIPVGKLVLNRNPVNYFAEVEQLAFDPSNMPPGIEPSPDKMLQGRLFAYPDTHRHRLGPNYLQIPVNCPYRARVANYQRDGPMCMMDNQGGAPNYYPNSFSAPEHQPSALEHRTHFSGDVQRFNSANDDNVTQVRTFYLKVLNEEQRKRLCENIAGHLKDAQLFIQKKAVKNFSDVHPEYGSRIQALLDKYNEEKPKNAVHTYVQHGSHLSAREKANL
- Deff (nm) [3]: 9.5 nm
- PdI [3]: 0.10
- Deff (nm) ([3]; listed as naked catalase): 9.5 nm
- catalase enzymatic activity upon sonication [4]: 14%
- neuroprotective activity (neuronal survival, MTT) (PC12 cells): did not protect PC12 cells
- theoretical diameter of a single protein globule [5]: 10.5 nm
- anti-inflammatory and neuroprotective effect (6-OHDA-intoxicated mice): not effective in decreasing inflammation or providing neuroprotection

B2: BDNF: brain derived neurotrophic factor (protein, UniProt P23560 19-247, looked up)
Neurotrophic factor BDNF …: APMKEANIRGQGGLAYPGVRTHGTLESVNGPKAGSRGLTSLADTFEHVIEELLDEDQKVRPNEENNKDADLYTSRVMLSSQVPLEPPLLFLLEEYKNYLDAANMSMRVRRHSDPARRGELSVCDSISEWVTAADKKTAVDMSGGTVTVLEKVPVSKGQLKQYFYETKCNPMGYTKEGCRGIDKRHWNSQCRTTQSYVRALTMDSKKRIGWRFIRIDTSCVCTLTIKRGR
- brain accumulation of BDNF [6]: the difference was not significant
- isoelectric point [7]: 9.99
